Data as given in the supplement of paper PMC11246515.
± gives the standard deviation of the averaged measurements.

Assay: total protein half-life in vivo (active degradation + dilution); higher = more stable protein
[1] = E. coli NCM3722 delta-clpP delta-lon delta-hslV, growth: N-lim chemostat, doubling time 6 h
[2] = E. coli NCM3722 delta-clpP, growth: N-lim chemostat, doubling time 6 h
[3] = E. coli NCM3722 delta-hslV, growth: N-lim chemostat, doubling time 6 h
[4] = E. coli NCM3722 delta-lon, growth: N-lim chemostat, doubling time 6 h
[5] = E. coli NCM3722 delta-smpB, growth: N-lim chemostat, doubling time 6 h
[6] = wild type E. coli NCM3722, growth: C-lim chemostat, doubling time 3 h
[7] = wild type E. coli NCM3722, growth: C-lim chemostat, doubling time 6 h
[8] = wild type E. coli NCM3722, growth: C-lim chemostat, doubling time 12 h
[9] = wild type E. coli NCM3722, growth: N-lim chemostat, doubling time 6 h
[10] = wild type E. coli NCM3722, growth: N-lim chemostat, doubling time 12 h
[11] = wild type E. coli NCM3722, growth: P-lim chemostat, doubling time 6 h
[12] = wild type E. coli NCM3722, growth: P-lim chemostat, doubling time 12 h

Sequence	total protein half-life in vivo [1] [h]	total protein half-life in vivo [2] [h]	total protein half-life in vivo [3] [h]	total protein half-life in vivo [4] [h]	total protein half-life in vivo [5] [h]	total protein half-life in vivo [6] [h]	total protein half-life in vivo [7] [h]	total protein half-life in vivo [8] [h]	total protein half-life in vivo [9] [h]	total protein half-life in vivo [10] [h]	total protein half-life in vivo [11] [h]	total protein half-life in vivo [12] [h]
MSAKHPVIAVTGSSGAGTTTTSLAFRKIFAQLNLHAAEVEGDSFHRYTRPEMDMAIRKARDAGRHISYFGPEANDFGLLEQTFIEYGQSGKGKSRKYLHTYDEAVPWNQVPGTFTPWQPLPEPTDVLFYEGLHGGVVTPQHNVAQHVDLLVGVVPIVNLEWIQKLIRDTSERGHSREAVMDSVVRSMEDYINYITPQFSRTHLNFQRVPTVDTSNPFAAKGIPSLDESFVVIHFRNLEGIDFPWLLAMLQGSFISHINTLVVPGGKMGLAMELIMLPLVQRLMEGKKIE [P0AEX5]	5.45 ± 0.28	5.4 ± 0.23	4.95 ± 0.67	4.68 ± 1.1	5.185 ± 0.032	2.96 ± 0.14	5.5 ± 0.22	11.8 ± 3.6	5.42 ± 0.28	10.9 ± 2.4	6.156 ± 0.01	12.4 ± 2.5
MPWIQLKLNTTGANAEDLSDALMEAGAVSITFQDTHDTPVFEPLPGETRLWGDTDVIGLFDAETDMNDVVAILENHPLLGAGFAHKIEQLEDKDWEREWMDNFHPMRFGERLWICPSWRDVPDENAVNVMLDPGLAFGTGTHPTTSLCLQWLDSLDLTGKTVIDFGCGSGILAIAALKLGAAKAIGIDIDPQAIQASRDNAERNGVSDRLELYLPKDQPEEMKADVVVANILAGPLRELAPLISVLPVSGGLLGLSGILASQAESVCEAYADSFALDPVVEKEEWCRITGRKN [P0A8T1]	5.8 ± 2.4	4.39 ± 0.31	5.13 ± 1.4	4.36 ± 0.61	3.91 ± 0.063	3.16 ± 0.55	4.89 ± 0.5	9.36 ± 0.56	4.39 ± 0.22	6.89 ± 0.88	5.37 ± 0.1	10.86 ± 0.1
MRKITQAISAVCLLFALNSSAVALASSPSPLNPGTNVARLAEQAPIHWVSVAQIENSLAGRPPMAVGFDIDDTVLFSSPGFWRGKKTFSPESEDYLKNPVFWEKMNNGWDEFSIPKEVARQLIDMHVRRGDAIFFVTGRSPTKTETVSKTLADNFHIPATNMNPVIFAGDKPGQNTKSQWLQDKNIRIFYGDSDNDITAARDVGARGIRILRASNSTYKPLPQAGAFGEEVIVNSEY [P0AE22]	6.66 ± 1.4		6.31 ± 0.14		5.83 ± 0.2	3.637 ± 0.033		11.7 ± 2.4	5.79 ± 0.22	> 16	6.42 ± 0.61	13.2 ± 0.27
MSHSSAPERATGAVITDWRPEDPAFWQQRGQRIASRNLWISVPCLLLAFCVWMLFSAVAVNLPKVGFNFTTDQLFMLTALPSVSGALLRVPYSFMVPIFGGRRWTAFSTGILIIPCVWLGFAVQDTSTPYSVFIIISLLCGFAGANFASSMANISFFFPKQKQGGALGLNGGLGNMGVSVMQLVAPLVVSLSIFAVFGSQGVKQPDGTELYLANASWIWVPFLAIFTIAAWFGMNDLATSKASIKEQLPVLKRGHLWIMSLLYLATFGSFIGFSAGFAMLSKTQFPDVQILQYAFFGPFIGALARSAGGALSDRLGGTRVTLVNFILMAIFSGLLFLTLPTDGQGGSFMAFFAVFLALFLTAGLGSGSTFQMISVIFRKLTMDRVKAEGGSDERAMREAATDTAAALGFISAIGAIGGFFIPKAFGSSLALTGSPVGAMKVFLIFYIACVVITWAVYGRHSKK										8.46		
MSIRIIPQDELGSSEKRTADMIPPLLFPRLKNLYNRRAERLRELAENNPLGDYLRFAALIAHAQEVVLYDHPLEMDLTARIKEASAQGKPPLDIHVLPRDKHWQKLLMALIAELKPEMSGPALAVIENLEKASTQELEDMASALFASDFSSVSSDKAPFIWAALSLYWAQMANLIPGKARAEYGEQRQYCPVCGSMPVSSMVQIGTTQGLRYLHCNLCETEWHVVRVKCSNCEQSGKLHYWSLDDEQAAIKAESCDDCDTYLKILYQEKDPKIEAVADDLASLVLDARMEQEGYARSSINPFLFPGEGE		4.49 ± 0.13	3.54 ± 0.26	4.36 ± 1.1	2.78 ± 0.7	1.81 ± 0.24	3.48 ± 0.15	6.07 ± 2.6	3.56 ± 0.28	4.72 ± 0.75	4.06 ± 0.14	7.84 ± 0.28
MAEVTQLKRYDARPINWGKWFLIGIGMLVSAFILLVPMIYIFVQAFSKGLMPVLQNLADPDMLHAIWLTVMIALIAVPVNLVFGILLAWLVTRFNFPGRQLLLTLLDIPFAVSPVVAGLVYLLFYGSNGPLGGWLDEHNLQIMFSWPGMVLVTIFVTCPFVVRELVPVMLSQGSQEDEAAILLGASGWQMFRRVTLPNIRWALLYGVVLTNARAIGEFGAVSVVSGSIRGETLSLPLQIELLEQDYNTVGSFTAAALLTLMAIITLFLKSMLQWRLENQEKRAQQEEHHEH [P0AEB0]	4.83	5.5	4.23		4.22	2.64	4.97 ± 1.4		4.59	4.73	4.26	10.7 ± 2
MNIKGKALLAGCIALAFSNMALAEDIKVAVVGAMSGPVAQYGDQEFTGAEQAVADINAKGGIKGNKLQIVKYDDACDPKQAVAVANKVVNDGIKYVIGHLCSSSTQPASDIYEDEGILMITPAATAPELTARGYQLILRTTGLDSDQGPTAAKYILEKVKPQRIAIVHDKQQYGEGLARAVQDGLKKGNANVVFFDGITAGEKDFSTLVARLKKENIDFVYYGGYHPEMGQILRQARAAGLKTQFMGPEGVANVSLSNIAGESAEGLLVTKPKNYDQVPANKPIVDAIKAKKQDPSGAFVWTTYAALQSLQAGLNQSDDPAEIAKYLKANSVDTVMGPLTWDEKGDLKGFEFGVFDWHANGTATDAK [P0AD96]	6.22 ± 0.16	5.81 ± 0.64	6.127 ± 0.057	6.35 ± 0.39	5.96 ± 0.19	3.27 ± 0.18	6.24 ± 0.17	11.46 ± 0.034	6.02 ± 0.32	12.23 ± 0.02	5.67 ± 0.064	13 ± 0.45
